According to publication PMC6540902, “A simple, robust, universal assay for real-time enzyme monitoring by signalling changes in nucleoside phosphate anion concentration using a europium(III)-based anion receptor” (Chemical Science, 2019):

Substrate: CC(C)C[C@H](NC(=O)[C@H](CO)NC(=O)[C@H](C)NC(=O)[C@H](CCCNC(=N)N)NC(=O)[C@H](CCCNC(=N)N)NC(=O)[C@@H](N)CC(C)C)C(=O)NCC(=O)O
Experiment: Michaelis-Menten substrate titration (Km) by real-time Eu(III) luminescence
Type: biochemical, Homo sapiens
Conditions: ATP, Mg2+

B1: Aurora A kinase (AurA) (Homo sapiens) (protein)
chain: MDRSKENCISGPVKATAPVGGPKRVLVTQQFPCQNPLPVNSGQAQRVLCPSNSSQRIPLQAQKLVSSHKPVQNQKQKQLQATSVPHPVSRPLNNTQKSKQPLPSAPENNPEEELASKQKNEESKKRQWALEDFEIGRPLGKGKFGNVYLAREKQSKFILALKVLFKAQLEKAGVEHQLRREVEIQSHLRHPNILRLYGYFHDATRVYLILEYAPLGTVYRELQKLSKFDEQRTATYITELANALSYCHSKRVIHRDIKPENLLLGSAGELKIADFGWSVHAPSSRRTTLCGTLDYLPPEMIEGRMHDEKVDLWSLGVLCYEFLVGKPPFEANTYQETYKRISRVEFTFPDFVTEGARDLISRLLKHNPSQRPMLREVLEHPWITANSSKPSNCQNKESASKQS
Km: 176 ± 29 µM
